# The RNAGym collection of RNA variant scans (doi:10.7554/elife.90254)
# B1: OR4K15 (parent)
# chain: GUUAACGGUCAUAGGCCAUGGAAACUAGGAGCACCAUUUCGCUGCCAGUGAAGAAAUGAACAAAGAAAAUCUGGGCCAGGCAGGCAUCAAAAGAAAUAGUCUUGCGCUCAACCAGAAAGUCUGUAAUCAUUUUAAGGGUA
# Variants of: B1
# Test: self-cleavage, relative activity (ratio to wild type); higher = more cleavage; in vitro, sequencing; the parent is a self-cleaving ribozyme
row,Variant,self-cleavage
1,GUUAACGGUCAUAGGCCAUGGAAACUAGGAGCACCAUUUCGCUGCCAGUGAAGAAAUGAGCAAAGAAAAUCUGGGCCAGGCAGGCAUCAAAAGAAACAGUCUUGCGCUCAACCAGAAAGUCUGUAAUCAUUUUAAGGGUA [A60G U97C],1.05
2,GUUAACGGUCAUAGGCCAUGGAAACUAGGAGCACCAUUCCGCUGCCAGUGAAGAAAUGAACAAAGAAAAUCUGGGCCAGGCAGGCAUCAAAAGAACUAGUCUUGCGCUCAACCAGAAAGUCUGUAAUCAUUUUAAGGGUA [U39C A96C],0.78
3,GUUAACGGUCAUAGGCCUUGGAAACUAGGAGCACCAUUUCGCUGCCAGUGAAGAAAUGAACGAAGAAAAUCUGGGCCAGGCAGGCAUCAAAAGAAAUAGUCUUGCGCUCAACCAGAAAGUCUGUAAUCAUUUUAAGGGUA [A18U A62G],1.37
4,GUUAACGGUCAUAGGCCAUGGAAACUAGGAGCACCAUUUCGCUGCCAGUGAAGAAAUGAACAAAGAACAUCUGGGCCAGGCAGGCAUCAAAAGAAAUAGUCUUGCGCUCGACCAGAAAGUCUGUAAUCAUUUUAAGGGUA [A68C A110G],0.16
5,GUUAACGGUCAUAGGCCAUGGAAACUAGGAGCACUAUUUCGCUGCCAGUGAAGAAGUGAACAAAGAAAAUCUGGGCCAGGCAGGCAUCAAAAGAAAUAGUCUUGCGCUCAACCAGAAAGUCUGUAAUCAUUUUAAGGGUA [C35U A56G],1.13
6,GUUAACGGUCAUAGGCCAUGGAAACUAGGAGCACCAUUUCGCUGCCAGUGAAGAAAUGAACAAAGAAAAUCUGAGCCAGGCAGGCAUCAAAAGAAAUAGUCUUGCGCUCAACCAGAAAGUCUGUAAUCAUUUUAAGGGUA [G74A],0.12
7,GUUAACGGUCAUAGGCCAUGGAAACUAGGAGCACCAUUUCGCUGCCAGUGAAGAAUUGAACAAAGAAAAUCUGGGCCAGGCAGGCAUCAAAAGAAAUAGUCUUGCGCUCAACCAGAAAGUCAGUAAUCAUUUUAAGGGUA [A56U U122A],1.31
8,GUUAACGGUCAUAGGCCAUGGAAACUAGGAGCACCAUUUCGCUGCCAGUGAAGAAAUGAACAAAGAAAAUCUGGGCCAGGCAGGCAUCAAAAGAAAUAGUCUUGCGUUCAGCCAGAAAGUCUGUAAUCAUUUUAAGGGUA [C107U A111G],0
9,GUUAACGGUCAUAGGCCAUGGAAACUAGGUGCACCAUUUCGCUGCCGGUGAAGAAAUGAACAAAGAAAAUCUGGGCCAGGCAGGCAUCAAAAGAAAUAGUCUUGCGCUCAACCAGAAAGUCUGUAAUCAUUUUAAGGGUA [A30U A47G],0.97
10,GUUAACGGUCAUAGGCCAAGGAAACUAGGAGCCCCAUUUCGCUGCCAGUGAAGAAAUGAACAAAGAAAAUCUGGGCCAGGCAGGCAUCAAAAGAAAUAGUCUUGCGCUCAACCAGAAAGUCUGUAAUCAUUUUAAGGGUA [U19A A33C],1.31
11,GUUAACGGUCGUAGGCCUUGGAAACUAGGAGCACCAUUUCGCUGCCAGUGAAGAAAUGAACAAAGAAAAUCUGGGCCAGGCAGGCAUCAAAAGAAAUAGUCUUGCGCUCAACCAGAAAGUCUGUAAUCAUUUUAAGGGUA [A11G A18U],0.46
12,GUUAACGGUCAUAGGCCAUGGAAACUAGGAGCACCAUUUCGCUGCCAGUGAGGAAAUGAACAAAGAAAAUCUGGGCCAGGCAGGCAUCAAAAGAAAUAGUCUUGCGCUCAACCAGAAAGUCUGAAAUCAUUUUAAGGGUA [A52G U124A],1.03
13,GUUAACGGUCAUAGGCCAUGGAAACUAGGAGCACCAUUUCGCUGCCAGCGAAGAAAUGAACAAAGAAAAUCUGGGCCAGGCAGGCAUCAAAAGAAAUAGUCUUGCGCUCAACCAGAAAGUCUGUAAUCAUUUUAAGGGCA [U49C U139C],1.71
14,GUUAACGGUCAUAGGCCAUGGAAACUAGGAGCACCAUUUCGCUGCCAGUGAAGAAAUGUACAAAGAAAAUCUGGGCCAGGCAGGCAUCAAAAGAAUUAGUCUUGCGCUCAACCAGAAAGUCUGUAAUCAUUUUAAGGGUA [A59U A96U],0.97
15,GUUAACGGUCAUAGGCCAUGGAACCUAGGAGCACCAUUUCGCUGCCAGUGAAGAAAUGAACAAAGAAAAUCUGGGCCAGGCAGGCAUCAAAAGAAAUAGUCUUGCGCUCAACCAGAAAGUCUGUAAUCAUUUUAAGGGUA [A24C],1.29
16,GUUAACGGUCAUAGGCCAUGGAAACUAGGAGCCCCAUUUCGCUGCUAGUGAAGAAAUGAACAAAGAAAAUCUGGGCCAGGCAGGCAUCAAAAGAAAUAGUCUUGCGCUCAACCAGAAAGUCUGUAAUCAUUUUAAGGGUA [A33C C46U],1.3
17,GUUAACGGUCAUAGGCCAUGGAAACUAGGAGCACCAUUUCGCUGCCAGUGAAGAAAUGAACAAAGAAAAUCUGGGCCAGGCAGGCAUCAAGAGACAUAGUCUUGCGCUCAACCAGAAAGUCUGUAAUCAUUUUAAGGGUA [A91G A95C],0.94
18,GUUAACGGUCAUAGACCAUGGAAACUAGGAGCACCAUUUCGCUGCCAGUGAAGAAAUGAACAAAGAAAAUCUGGGCCAGGCAGGCAUCAAAAGAAAUAGUCUCGCGCUCAACCAGAAAGUCUGUAAUCAUUUUAAGGGUA [G15A U103C],0.82
19,GUUAACGGUCAUAGGCCAUGGUAACUAGGAGCACCAUUUCGCUGCCAGUGAAGAAAUGAACAAAGAAAAUCUGGGCCAGGCAGGCAUCUAAAGAAAUAGUCUUGCGCUCAACCAGAAAGUCUGUAAUCAUUUUAAGGGUA [A22U A89U],1.91
20,GUUAACGGUCAUAGGCCAUGGAAACUGGGAGCACCAUUUCGCUGCCAGUGAAGAAAUGAACAAAGAAAAUCUGGGCCAGGCAGGCAUCAAGAGAAAUAGUCUUGCGCUCAACCAGAAAGUCUGUAAUCAUUUUAAGGGUA [A27G A91G],1.22
21,GUUAACGGUCAUAGGCCAUGGAACCUAGGAGCACCAUUUCGCUGCCAGUGAAGAAAUGAACAAAGAAAAUCUGGGCCCGGCAGGCAUCAAAAGAAAUAGUCUUGCGCUCAACCAGAAAGUCUGUAAUCAUUUUAAGGGUA [A24C A78C],0.36

row,Variant,self-cleavage
1,GUUAACGGUCAUAGGCCAUGGAAACUAGGAGCACCAUUUCGCUGCCAGUGAAGAAAUGAACAAAGAAAACCUGGGCCAGGCAGGCAUCAAAAGAAAUAGUCUUGCGCUCAACCAGAAAGUCUGUAAUCAUUCUAAGGGUA [U70C U132C],0.96
2,GUUAACGGUCAUAGGCCAUGGAAACUAGGAGCACCAUUUCGCUGCCAGUGAAGAAAUGAACAAAGAAAAUCUGGGCCAGGCGGGCAUCAAAAGAAAAAGUCUUGCGCUCAACCAGAAAGUCUGUAAUCAUUUUAAGGGUA [A82G U97A],0.92
3,GUAAACGGUCAUAGGCCAUGGAAACUAGGAGCACCAUUUCGCUGCCAGUGAAGAAAUGAACAAAGAAAAUCUGGGCCAGGCAGGCAUCAAAAGAAAUAGCCUUGCGCUCAACCAGAAAGUCUGUAAUCAUUUUAAGGGUA [U3A U100C],1.63
4,GUUAACGGUCAUAGGCCAUGGAAGCUAGGAGCACCAUUUCGCUGCCAGUGAAGAAAUGAACAAAGAAAAUCUGGGCCAAGCAGGCAUCAAAAGAAAUAGUCUUGCGCUCAACCAGAAAGUCUGUAAUCAUUUUAAGGGUA [A24G G79A],0.18
5,GUUAACGGUCAUAGGCCAUGGAAACUAGGAGCACCAUUUCGCUGCCAGUGAAGAAAUGAACAAAGAAAAACUGGGCCAGGCAGGCAUCAAAAGAAAUAGUCUUGCGCUCAACCAGAAAGUCUGUAAACAUUUUAAGGGUA [U70A U127A],2.27
6,GUUAACGGUCAUAGGCCAUGGAAACUAGGAGCACCAUUUCGCUGCCAGUGAAGAAAUGAACAAAGAAAAUCUGGGCCUGGCAGGCAUCAAAAGAAAUAGUCUUGCGCUCAACCAGAAAGUCUGUAAUCAUUUCAAGGGUA [A78U U133C],0.37
7,GUUAACGGUCAUAGGCCAUGGAAACCAGGAGCACCAUUUCGCUUCCAGUGAAGAAAUGAACAAAGAAAAUCUGGGCCAGGCAGGCAUCAAAAGAAAUAGUCUUGCGCUCAACCAGAAAGUCUGUAAUCAUUUUAAGGGUA [U26C G44U],1.99
8,GUUAACGGUCAUAGGCCAUGGAAACUAGGAGCACCAUUUCGCUGCCAGUGAAGAAAUGAACAAAGAAAAUCUGGGCCAGGCAGGCAUCAAAAGAUAUGGUCUUGCGCUCAACCAGAAAGUCUGUAAUCAUUUUAAGGGUA [A95U A98G],1.46
9,GUUAACGGUCAUAGGCCAUGGAAACUAGGAGCACCAUUUCGCUGCCAGUGAAGAAAUGAACAAAGUAAAUCUGGGCCAGGCAGGCAUCUAAAGAAAUAGUCUUGCGCUCAACCAGAAAGUCUGUAAUCAUUUUAAGGGUA [A66U A89U],0.62
10,GUUAACGGUCAUAGGCCAUGGAAACUAGGAGCACCAUUUCGCUGCCAGUGAAGAAAUGAACAAAGAAAACCUGGGCCAGGCAGGCAUCAAAAGAAAUAGUCUUGCGCUCAACCAGAAAGUUUGUAAUCAUUUUAAGGGUA [U70C C121U],1.42
11,GUUAACGGUCAUAGGCCAUGGAGACUAGGAGCACCAUUUCACUGCCAGUGAAGAAAUGAACAAAGAAAAUCUGGGCCAGGCAGGCAUCAAAAGAAAUAGUCUUGCGCUCAACCAGAAAGUCUGUAAUCAUUUUAAGGGUA [A23G G41A],1.29
12,GUUAACGGUCAUAGGCCAUGUAAACUAGGAGCACCACUUCGCUGCCAGUGAAGAAAUGAACAAAGAAAAUCUGGGCCAGGCAGGCAUCAAAAGAAAUAGUCUUGCGCUCAACCAGAAAGUCUGUAAUCAUUUUAAGGGUA [G21U U37C],1.85
13,GUUAACGGUCAUAGGCCAUGGAAAUUAGGAGCACCAUUUCGCUGCCAGUGAAGAAAUGAACAAAGAAAAUCUGGGCCAGGCAGGCAUCCAAAGAAAUAGUCUUGCGCUCAACCAGAAAGUCUGUAAUCAUUUUAAGGGUA [C25U A89C],1.42
14,GUUAACGGUCAUAGGCCAUGGAAACUAGGAGCACCAUUUCGCUGCCAGUGAAGAAAUGAACAAAGAAAAUCUGGCCCAGGCAGGCAUCAAAAGAAAUAGUCUUGCGCUCAGCCAGAAAGUCUGUAAUCAUUUUAAGGGUA [G75C A111G],0
15,GUUAACGGUCAUAGGCCAUGGAAACUAGGAGCACCAUUUCGCUGCCAGUGAAGAAAUGAACAAAGAAAACCUGGGCCAGGCAGGCAUCAGAAGAAAUAGUCUUGCGCUCAACCAGAAAGUCUGUAAUCAUUUUAAGGGUA [U70C A90G],0.83
16,GUUAACGGUCAUAGGCCAUGGAAACUAGGAGCACCAUUUCGCCGCCAGUGAAGAAAUGAACAAAGAAAAUCUGGGCCAGGCAGGCAUCAAGAGAAAUAGUCUUGCGCUCAACCAGAAAGUCUGUAAUCAUUUUAAGGGUA [U43C A91G],1.29
17,GUUAACAGUCAUUGGCCAUGGAAACUAGGAGCACCAUUUCGCUGCCAGUGAAGAAAUGAACAAAGAAAAUCUGGGCCAGGCAGGCAUCAAAAGAAAUAGUCUUGCGCUCAACCAGAAAGUCUGUAAUCAUUUUAAGGGUA [G7A A13U],1.19
18,GUUAACGGUCAUAGGCCAUGGAAACUAGGAGCACCAUUUCGCUGCCAGUGAAGAAAUGAACAAAGAAAACCUGGGCCAGGCAGGCAUCCAAAGAAAUAGUCUUGCGCUCAACCAGAAAGUCUGUAAUCAUUUUAAGGGUA [U70C A89C],0.49
19,GUUAACGGUCAUAGGCCAUGGAAACUAGGAGCACCAUUUCGCUGCCAGUGAAGAAAUGAGCAAAGAUAAUCUGGGCCAGGCAGGCAUCAAAAGAAAUAGUCUUGCGCUCAACCAGAAAGUCUGUAAUCAUUUUAAGGGUA [A60G A67U],2.01
20,GUUAACGGUCAUAGGCCAUGGAAACUAGGAGCACCAUUUCGCUGCCAUUGAAGAAAUGAACAAAGAAAAUCUGGGCCAGGCAGGCAUCAAAAGAAAUAGUCUUGCGCUCGACCAGAAAGUCUGUAAUCAUUUUAAGGGUA [G48U A110G],0.2
